Among the data in patent US5663314 are Phosphorylation values, retold here.

The target of assay [1] is Histones.
Assay [2] has as its target Kemptide.
Assay [3] concerns the target T1, TEY peptide.
T1 sequence (peptide): PEHDHTGFLTEYVATRWYR

Assay [4] deals with T2, S6 peptide.
T2 sequence (peptide): RRLSSLRA

The target in assay [5] is T3, Syntide-2.
T3 sequence (peptide): PLARTLSVAGLPGKK

The target of assay [6] is Casein.
Assay [7] deals with bovine myelin basic protein (bovine) (UniProt P02687).
Assay [8] has as its target Ribosomal S6 protein.
Assay [9] has as its target T4, Band-3 peptide.
T4 sequence (peptide): MEELQDDYEDDMEERR

In assay [10] the target is Denatured enolase.
For assay [11], the target named is T5, RR-SRC peptide.
T5 sequence (peptide): RRLIEDAEYAARG

The target in assay [12] is T6, ETE peptide.
T6 sequence (peptide): RRREEETEEE

Assay [13] addresses Recombinant ERK2 expressed in E. coli (Rattus norvegicus (Rat)) (UniProt P63086).

Sequence of bovine myelin basic protein (bovine) (P02687 whole entry): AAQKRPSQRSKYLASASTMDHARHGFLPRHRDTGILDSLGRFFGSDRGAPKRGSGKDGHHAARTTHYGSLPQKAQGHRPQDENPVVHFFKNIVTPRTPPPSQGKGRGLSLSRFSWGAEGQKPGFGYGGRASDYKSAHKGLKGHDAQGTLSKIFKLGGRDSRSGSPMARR

On to “MAPK activator 1 (MAPKK1a), 46 kDa polypeptide purified from EGF-stimulated A431 cells (enzyme)”, for which the Phosphorylation is 0.02 nmol/min/mg in assay [1]; less than 0.005 nmol/min/mg in [2]; 0.04 nmol/min/mg in [3]; less than 0.005 nmol/min/mg in [4]; less than 0.005 nmol/min/mg in [5]; less than 0.005 nmol/min/mg in assay [6]. Also, the Phosphorylation in assay [7] was 0.1 nmol/min/mg; in [8] it was less than 0.005 nmol/min/mg; in assay [9] it was less than 0.005 nmol/min/mg; in assay [10], less than 0.005 nmol/min/mg; in assay [11] it was less than 0.005 nmol/min/mg; in [12] it was less than 0.005 nmol/min/mg. For the same substance, the Phosphorylation in assay [13] was 150 nmol/min/mg.
